Experimental data published in US20190248901A1 (NOVELOGICS BIOTECHNOLOGY, published 2019).

T1: recombinant extracellular alpha-3 domain of MICA (allele 001), His-tagged, Baculovirus/Sf9 expressed (human, UniProt Q29983 205-297)
T1 construct: also called MICA alpha-3 recombinant antigen; alpha-3 domain MICA immunogen
T1 sequence: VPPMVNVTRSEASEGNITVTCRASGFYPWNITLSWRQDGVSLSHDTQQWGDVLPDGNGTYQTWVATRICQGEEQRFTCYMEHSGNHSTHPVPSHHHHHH

B1: monoclonal antibody 5C9 (antibody, V domains shown)
VH: QVQLQQSGAELVRPGTSVKVSCKASGYAFTNYLIEWVKQRPGQGLEWIGLIYPGSGGTNYNEKFKGKATLTADKSSSTAYMQLSSLTSDDSAVYFCARIYYGNRDYGMDYWGQGTSVTVSS
VL: MTQTPLSLPVSLGDQASISCRSSQSIVHSNGNTYLEWYLQKPGQSPKLLIYKVSNRFSGVPDRFSGSGSGTDFTLKISRVEAEDLGVYYCFQGSHVPFTFGSGTKLEIK
notes: Mouse hybridoma antibody; Used as hybridoma supernatant in the screening and immunoprecipitation assays; also called mAb 5C9; antibody from hybridoma clone 5C9

Key:
[1] = molecular target: soluble MICB (sMICB) shed from prostate cancer DU-145 cells (human) (UniProt Q29980); assay: subtractive immunoprecipitation from DU-145 conditioned medium with antibody on Protein G beads, remaining sMICB by MICB ELISA, against isotype controls
Chain of soluble MICB (sMICB) shed from prostate cancer DU-145 cells (human) (Q29980 23-309): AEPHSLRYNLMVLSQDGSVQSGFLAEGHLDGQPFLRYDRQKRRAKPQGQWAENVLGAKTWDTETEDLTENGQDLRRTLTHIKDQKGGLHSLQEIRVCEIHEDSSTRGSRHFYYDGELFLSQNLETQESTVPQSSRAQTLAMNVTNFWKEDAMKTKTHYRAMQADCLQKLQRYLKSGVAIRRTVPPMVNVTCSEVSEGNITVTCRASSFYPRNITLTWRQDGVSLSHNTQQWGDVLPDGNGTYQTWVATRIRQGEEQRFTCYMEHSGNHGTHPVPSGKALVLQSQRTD

[2] = molecular target: recombinant extracellular alpha-3 domain of MICA (allele 001), His-tagged, Baculovirus/Sf9 expressed (human) (UniProt Q29983); assay: Bio-Layer Interferometry (Octet RED96), antibody captured by anti-mouse IgG, antigen in solution, pH 7.4, 1:1 model
[3] = molecular target: T1, recombinant extracellular alpha-3 …; assay: as above
Experimental: Biomolecular interactions between MICA alpha-3 recombinant antigen and test antibody were directly measured by Bio-Layer Interferometry (BLI) using a Pall ForteBio Octet RED96 machine (Pall ForteBio, CA, USA). Real-time kinetic analyses were performed on the test MICA monoclonal antibody 5C9, as well as two control antibodies, one of which could bind the alpha-3 MICA subdomain antigen (positive control) and one of which could not (negative control), as previously determined by ELISA. The Octet RED96 apparatus operates under the principle of Bio-Layer Interferometry, a label-free technique that measures molecular interactions and complex formation. A key component of the technique is the optical biosensor whose tip is immersed in the fluids of the test well and then used to assay interference patterns between waves of light. Here, the ligand (monoclonal antibody) is localized to the surface of the biosensor through capture by previously bound anti-mouse IgG, while the analyte biomolecule (antigen) is kept in solution. Binding responses between ligand and analyte were measured and reported in real-time. Both association and dissociation kinetics were monitored and KD values were calculated. This model assumed a 1:1 interaction of ligand to analyte.

Molecule | reduction of the amount of sMICB in the sample [1] | Kd [2] | Kd [3]
BAMO3, MIC alpha-3 specific murine IgG2a monoclonal antibody (MBL International) | 83% | 6 nM | 
negative control antibody of the Bio-Layer Interferometry analysis |  | 9600 nM | 
B1 |  |  | ~3.3 nM
